{"source": "the DeepSol protein solubility set"}
{"test": "soluble on expression in E. coli; label from the status in PepcDB or PDB records"}
{"sequence": "MIILIRYGPIDVTYCRMKRGFMYMVAIIDWYSRYIVGFELSNTLDKTFVIEAIQKAIKRYGKPEIMNSDQGSQFTSDDYINLLKNNGIKISMDGKGRALDNQRIERFFRSYKWEKLYLEECETVQQLRQITKEYVEHYNHRRPHQSLDYKTPAEYYFGGYDQLLAVV", "soluble on expression in E. coli": "not soluble"}
{"sequence": "MIRVLLADDHALFRQGLKSLLEAEGDFRVVGEAKDGWEAMRHALETKPDVILMDIQMPGLDGVQATQAILKEWPQAKVIMLTMYRQDAYVFEAVKAGARGYLLKDVDARELVDAIRRVHAGEVLLDAELAGHIIQDFRAKKEASQPLHAELSEREVQILRLVAQGYTNQEIAAELQLSEKTVRNRLSEIFQKLHLNNRTQAALYAIREGLARPEE", "soluble on expression in E. coli": "soluble"}
{"sequence": "MAHHHHHHMAAVDMQVRAGELPEEPKKDLKKEPSGASKSEEEMQSGIKTYYEMKIEEYESIINKKLQNKKRLEAQRNELNTRVRELCDEIQYLLEAASYVGEIVKPMGKNKVLVKINPEGKYVVDISHSVNIAQCTPNTRVALYNDSYKLHKILPSKVDPLVSLMKVEKVPDSTYEMVGGLDQQVKEVKEVIELPVKHPEIFESLGISQPKGVLLYGPPGTGKTLLARAVAHHTDCTFIRVSGSELVQKYIGEGSRMVRELFVMAREHAPSIIFMDEIDSIGSQRIEGEHGDSEVQRTMMELLNQLDGFESTQNIKVIMCTNRIDILDEALLRPGRIDRKIEFPNPNVEARMEILKIHSRKMNLMRGIDMMKIATDMNNCSGAEVKAVCTEAGMFALRERRVHVTQEDFEMAVAKVMKQDAEKNFTLRKLWK", "soluble on expression in E. coli": "soluble"}
{"sequence": "SVGHLHLQAMGDTREQSRDGLLDSPDSGLPPSPSPSPPFYALSPGTLDTRTTTEAPAAPSLFQTPPALEMRSRLLPVFFGESIEVDPEPAHEIRCNSEITYASERYFRDKIFYAPVPTVTAYSETIVAAPNCTWRSYRSQLTLEPRPRALRFGSTAIIFPKLARSSFRTTLHCSLGQPRHWYSSSLQLRRCGDPTPGPSCPDVL", "soluble on expression in E. coli": "soluble"}
{"sequence": "MGSDKIHHHHHHMTKAVAETLESKAAKAAPMDRLWAENDDSRVTGDPSLVVDVAGFEGPLDLLLHLARTQKVDLARISILALVEQYLAFVETARALRLELAADYLVMAAWLAFLKSKLLIPKQPGEEGESGEELAAVLQFRLKRLEAMRDAAARLVNRNRLGRDVFARGMPEMVIIEKRNAYSASLYDLLTAYAQQRQKQAVTNVTIARRGVWSLKDARDILTRLIGSLRDWTALDSFLIRYMTSPEERRTAIASSFAATLELVRERKMDLRQDEVFAPIYLRDHRAPAIKAVEVAS", "soluble on expression in E. coli": "not soluble"}
{"sequence": "SPLEQRSQHCKPEEGLEARGEALGLVGAQAPATEEQEAASSSSTLVEVTLGEVPAAESPDPPQSPQGASSLPTTMNYPLWSQSYEDSSNQEEEGPSTFPDLESEFQAALSRKVAKLVHFLLLKYRAREPVTKAEMLGSVVGNWQYFFPVIFSKASDSLQLVFGIELMEVDPIGHVYIFATCLGLSYDGLLGDNQIMPKTGFLIIILAIIAKEGDCAPEEKIWEELSVLEVFEGREDSIFGDPKKLLTQYFVQENYLEYRQVPGSDPACYEFLWGPRALIETSYVKVLHHMVKISGGPRISYPLLHEWALREGEE", "soluble on expression in E. coli": "soluble"}
{"sequence": "MGSDKIHHHHHHMDTAPLLPSSIRDQFTREVVYLNTATCGLPPRVAHEATLAVERDRARGRLTLDIAHQAVERSRAAFARLVGVPVSRVAVGSQASFFVGLVAASLPPGATVVVAEEDFTSVTYPFLAATGRGVTVRPVPLDRIIDAVDTSVDLVSVSVVQSADGRIVDVPALLDAAATHGARVLLDTTQSSGWLPIPADRVDYLVCSAYKWLLGPRGACFFAGTDDALAELTPIAANWFAAEDITSAFYGTELRLASDARRFDLSPAWASCVGLAPALELLADLGEAALGAHNVALANRFCAALGLPPTDSAIVSVAVDAKAQQVLADAGIVAAMRAGRMRCAFHLSTDAADVDRAVEEIGPYLRDANLEEAVRVPGDR", "soluble on expression in E. coli": "not soluble"}
{"sequence": "MSTHNTHINETMQRNGRNNMAEHRGGSGNFAEDREKASDAGRKGGQHSGGNFKNDPQRASEAGKKGGQQSGGNKSGKS", "soluble on expression in E. coli": "not soluble"}
{"sequence": "AHHHHHHGSTKVYIENYGCARNRADGEIMAGLLLSSGYEIVEGEENADIVVVNSCAVKDPTEVKIARRIRELLDRGKKVIVTGCLPHVNPDAIDERVSAVLGVKSIDRIVQAVEYALRGEKLISVPDWRKRNLDKLDFPRLSPRGVHFILPIAEGCLNGCTYCATRSARGVLKSYSPEKIVEWVKWAIRQGYKEIWLSAEDTGCYGFDIGTNLAKLLDEITAIEGEFRIRVGMMNPNHVLKFLDELIEAYKDEKVYKFLHLPVQSGDNEILRRMGRTYTVEEFEEIVNAFRREFPDLNLHTDIIVGFPGESEEAFQRSLELIKRIKPDKVNVSRYSPRPGTIAAKWKQLPGWVVKERSRIMHRVRLQISYEINQRYVGRKVDILVHGEGKKGNVDAVTMNYKHIIIPRGEKGEFARAKVNGATSTYLLGEIVD", "soluble on expression in E. coli": "not soluble"}
{"sequence": "MAHHHHHHMDATELKNKGNEEFSAGRYVEAVNYFSKAIQLDEQNSVLYSNRSACFAAMQKYKDALDDADKCISIKPNWAKGYVRRGAALHGMRRYDDAIAAYEKGLKVDPSNSGCAQGVKDVQVAKAREARDPIARVFTPEAFRKIQENPKLSLLMLQPDYVKMVDTVIRDPSQGRLYMEDQRFALTLMYLSGMKIPNDGDGEEEERPSAKAAETAKPKEEKPLTDNEKEALALKEEGNKLYLSKKFEEALTKYQEAQVKDPNNTLYILNVSAVYFEQGDYDKCIAECEHGIEHGRENHCDYTIIAKLMTRNALCLQRQRKYEAAIDLYKRALVEWRNPDTLKKLTECEKEHQKAVEEAYIDPEIAKQKKDEGNQYFKEDKFPEAVAAYTEAIKRNPAEHTSYSNRAAAYIKLGAFNDALKDAEKCIELKPDFVKGYARKGHAYFWTKQYNRALQAYDEGLKVDPSNADCKDGRYRTIMKIQEMASGQSADGDEAARRAMDDPEIAAIMQDSYMQLVLKEMQNDPTRIQEYMKDSGISSKINKLISAGIIRFGQ", "soluble on expression in E. coli": "soluble"}
{"sequence": "VADEYKWALASIYETDDEWEAAFEDVQAELDALNDYEGRLTEDGETLLAALELRDAVYRDAKTVSAYASMRSDEDTRDQEYQALQARGASLMTDVSSATSFFDPELQACTREQLQSMIEETPELAAYEHYFDDVLRMKPHTRSAEVEGLLSELGEVFGAPSDAYNMLTDADLEFPTVEDPAGDAVEISQSN", "soluble on expression in E. coli": "soluble"}
{"sequence": "MIVLIDGPSGSGKTTFAGFLGEILGMRIVHFDDLYPGWHGLAAGVKIVTALLEGAGGYHRWDWANNVMGPWVEVPERNLIIEGVGSLAPSVVRAARQHGPVLTMLFDGPEQMRRSRALARDPFYEPWWEMWAEQEARHFATVETPDVTRGYP", "soluble on expression in E. coli": "not soluble"}
{"sequence": "HHHHHHHHHHMLPTPYVKCDYDKVYEPAEDSFLILDCLEKEHDFLKQKFGNRLAIVCEIGSGSGIVTTFLMQNKIIPQENSIHLAVDINPWALEATLDTAKLNSCKSSFLEVIQADLNSSIRNNQVDVLIFNPPYVPAECVPDVPGSREEADQWLDLALLGGKDGMAITDKLLRQLEQILSPDGVAYILFCARNKPKEVIKRFVDTYKWNVKLIETRKAGWEVLSVYSFTR", "soluble on expression in E. coli": "not soluble"}
{"sequence": "MSLADVILHAFNWPYATVEARAKQIADAGYRKVLVAPAYRSEGSAWWARYQPQDIRLIDNPLGDTAAFKKMVQALASNGVETYADIVFNHMANEAATRSDLNYPGGAVLSQYAANPGRYDSLRLFGTLQSNFLSASDFGPAQCISNYNDAYQVRNYRICGGGSDPGLPDLLGNDWVVQQQRAYLQALKSMGVTGFRVDAAKHMTFDHLNRVFDAGIRSGVYVFGEVITGGGTGNGDYDQFLAPYLQSTPHAAYDFPLFNAVRNAFAIGASMQQLVDPAASGQALPGNRAVTFAVTHDIPNNAGFRYAILDPVDETLAYAYLIGRNGGMPMLYTDNNESGDNRWVNAYLRDDLRRMIGFHNGVQGTDMQVLSSSSCHILFRRGSLGIVGINKCGNPVTTTVGMNNSVLYWNADYVDALGSGNVVRISSSSYTFTLPARGARMWRREGHHHHHH", "soluble on expression in E. coli": "not soluble"}
{"sequence": "MTATETVRVRFCPSPTGTPHVGLVRTALFNWAYARHTGGTFVFRIEDTDAQRDSEESYLALLDALRWLGLDWDEGPEVGGPYGPYRQSQRAEIYRDVLARLLAAGEAYHAFSTPEEVEARHVAAGRNPKLGYDNFDRHLTDAQRAAYLAEGRQPVVRLRMPDDDLAWNDLVRGPVTFAAGSVPDFALTRASGDPLYTLVNPCDDALMKITHVLRGEDLLPSTPRQLALHQALIRIGVAERIPKFAHLPTVLGEGTKKLSKRDPQSNLFAHRDRGFIPEGLLNYLALLGWSIADDHDLFGLDEMVAAFDVADVNSSPARFDQKKADALNAEHIRMLDVGDFTVRLRDHLDTHGHHIALDEAAFAAAAELVQTRIVVLGDAWELLKFFNDDQYVIDPKAAAKELGPDGAAVLDAALAALTSVTDWTAPLIEAALKDALIEGLALKPRKAFSPIRVAATGTTVSPPLFESLELLGRDRSMQRLRAARQLVGHALEHHHHHH", "soluble on expression in E. coli": "soluble"}
{"sequence": "MESKLEQNVTAMMSSTGASGITVADSEGVRLHSAGKITDMANVGSLMIADAKNMFPKGTRNKKNSYPIVTLHSSDGSKTTKFLFENLKILNVLFKNQQISYYLLQKPEISGFSYKKSVFFSNFLSENLKIF", "soluble on expression in E. coli": "soluble"}
{"sequence": "MSRSGEFCPRCGDEIPEGTDERPELAGAGGQRNSEHVLCDACYFEEFDLVDAPDTIQVRVCSRCGAVHKGNRWVDIGAEDYTDIAVEQVSEALGIHVDAQSVAWQVAPEQLDKNNIRMHAEFSGVIRGTPVTEEVTVPVRISRQTCKRCGKIAGGSFASIVQVRADGRDPTDDERERAEEIAQEYVAAREETGDRNAFITETKSVDDGLDMKISTNQMGLGIAKRITAQLGGSYSDSRRLISEDEDGQELYRMTYAVRLPRYRQGEVIDPEDGDGPVLVRSVQGNLKGVRLATGEDYEASFEAGETPDARRLGFREDGQQTTLVAIEDERAVQVLDPETFESKTVPRPDYLDIDADEVPVLKSHAGLHILPAADADTDELEHHHHHH", "soluble on expression in E. coli": "soluble"}
{"sequence": "MSDEAIHDIFVIGGGINGCGIARDAVGRGYSVALAEMNDFASGTSSAATKLIHGGLRYLEHYEFRLVREALMEREVLWAMAPHIIWPMRFVLPFQKGGVRPAWLVRLGLFLYDHLGGRKLLPATRSLDLRRDPAGKPLKPIFARAFEYSDGWVDDARLVVLNARDAADRGAVILNRTQVVSARREGAFWRVETKNAAGESKTYRARMLVNAAGPWVDKVLAATFGKNNVHNVRLVQGSHIIVRKKFADPRAYFFQNPDGRIIFAIPYEQDFTLIGTTDRDYTADPRAVKISDEEISYLCNAASEYFAEPVKPADIVWTYSGVRPLFDDGASKAQEATRDYVLKTEGAEGEAPLLNIFGGKLTTYRRLAEHALEKIGDALGEKGTPWTAGSHLPGGNFGAEAYAEEVKALRSRYPFLDRRHAERLVRCYGTDAVAIIGAAADTTALGRHFGGTLYEAEVRWLMAREWALTAEDILWRRTKQGLFLTPEEVLGLTDYIDDIAGGRLKAILEHHHHHH", "soluble on expression in E. coli": "soluble"}
{"sequence": "SDTGFADSNNDSSPGEGSKRGNSGIEGPVPMDVELAAAKSKRLSEPFFLKNVLLEKSGDTSDLTALALSVHAVMLESGFVLLDHGSDKFSFSKKLLSVSLRYTLPELITRKDTNTVESVTVRFQNIGPRLVVYGTLGGSCKRVHMTSLDKSRFLPVIDLVVDTLKFEKQGSSSYYREVFMLWRMVKDELVIPLLIGLCDKAGLESPPCLMLLPTELKLKILELLPGVSIGYMACVCTEMRYLASDNDLWEHKCLEEGKGCLWKLYTGDVDWKRKFASFWRRKRLDLLARRNPPIKKSNPRFPTLFPDRRDRREPFDRFGPSDFYRFGLRDPRDRFGPRDPRDPHFYGFRY", "soluble on expression in E. coli": "soluble"}
{"sequence": "MGSDKIHHHHHHMTKRAVVAGINDYRNWNSVGFGNLSWCLTDAQSFAEDVLVHGRGFRPDDITVLLDRDATRTNILEHLRRLLARADLGDVICLYFSGHGDRAQVPGTPSEWHETIVPYDGAAMISDHEINALIAGLEFNRLNLTLVLDSCHSGGVYDPAPPQGSKVAQWGEDKLGALVSTCKTILPTICAQTVDPFVNNIQAILRAVDSATMTVDGAKDTAETAKATLFSACDFDETAKENPTLRHGFMTKALLDTVTQSAFKMPNRLLASDLRGKVAAFVSQFGTSQQTPCLRGRPVRQDEDFLTEWTFSI", "soluble on expression in E. coli": "not soluble"}
